According to patent publication US20260234247A1 (published 2026):
Each block holds one binder with its values, some of them ahead of it.

Tests used:
human LILRA1 [1] = molecular target: T1, human LILRA1 (human, UniProt O75019 17-461, limits assumed); experiment: ELISA, OD450, antibody at 200 nM; + = 2-fold over ISO
T1 construct: bought protein coated for ELISA; also called hLILRA1
T1 sequence (O75019 17-461 limits assumed): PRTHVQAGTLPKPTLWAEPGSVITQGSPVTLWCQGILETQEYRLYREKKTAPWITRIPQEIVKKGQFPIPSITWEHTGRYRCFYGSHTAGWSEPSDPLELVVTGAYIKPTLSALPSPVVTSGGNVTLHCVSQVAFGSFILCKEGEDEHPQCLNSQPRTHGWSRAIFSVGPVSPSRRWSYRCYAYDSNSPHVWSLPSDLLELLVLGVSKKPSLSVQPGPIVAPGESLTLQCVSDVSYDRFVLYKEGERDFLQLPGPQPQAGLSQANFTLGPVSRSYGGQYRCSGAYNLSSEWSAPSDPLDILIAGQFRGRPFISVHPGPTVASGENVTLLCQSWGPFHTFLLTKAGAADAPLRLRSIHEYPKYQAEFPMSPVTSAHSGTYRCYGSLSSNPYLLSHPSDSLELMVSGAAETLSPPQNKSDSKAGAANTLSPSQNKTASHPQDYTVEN
Description: (§1) To further confirm binding affinity, selected clones were assayed in ELISA or FACS in a range of testing concentrations.

[2] = molecular target: T2, Cynomolgus LILRB2 on CHOK1 cells (cynomolgus); experiment: flow cytometry on CHOK1-cyno LILRB2 cells
T2 construct: whole, on cells; also called CHOK1-Cyno LILRB2
Excerpt: Anti-LILRB1 and anti-LILRB2 antibodies were also screened for their ability to bind rhesus macaque LILRB1 (Kactusbio, LLC: LIL-CM1B1 and LIL-CM1B3), cynomolgus LILRB1 (Kactusbio, LLC: LIL-CM1B2) and cynomolgus LILRB2 (Kactusbio, LLC: LIL-CM1B5) by ELISA and flow cytometry.

human LILRA3 = molecular target: T3, human LILRA3 (human, UniProt Q8N6C8 24-439); experiment: ELISA, OD450, antibody at 200 nM; + = 2-fold over ISO
T3 construct: bought protein coated for ELISA; also called hLILRA3
Description: as §1

human LILRA2 = molecular target: T4, human LILRA2 (human, UniProt Q8N149 24-449); experiment: as above
T4 construct: bought protein coated for ELISA; also called hLILRA2
Description: as §1

human LILRB5 = molecular target: T5, human LILRB5 (human, UniProt O75023 24-458); experiment: as above
T5 construct: bought protein coated for ELISA; also called hLILRB5
Description: as §1

human LILRB3 = molecular target: T6, human LILRB3 (human, UniProt O75022 24-443); experiment: as above
T6 construct: bought protein coated for ELISA; also called hLILRB3
Description: as §1

human LILRA1 [3] = molecular target: T7, human LILRA1 (human, UniProt O75019 17-461, limits assumed); experiment: ELISA, antibody at 200 nM, OD450; + = 2-fold over ISO
T7 construct: Bought protein; also called hLILRA1
T7 sequence (O75019 17-461 limits assumed): as above
Description: as §1

[4] = molecular target: T8, Rhesus LILRB1 (F7H3G7) on CHOK1 cells (rhesus macaque); experiment: flow cytometry on CHOK1-rhesus LILRB1 (F7H3G7) cells
T8 construct: whole, on cells; also called CHOK1-Rhesus LILRB1 (F7H3G7)

human LILRB4 = molecular target: T9, human LILRB4 (human, UniProt Q8NHJ6 22-259); experiment: ELISA, antibody at 200 nM, OD450; + = 2-fold over ISO
T9 construct: Bought protein; also called hLILRB4
Description: as §1

T4 sequence (Q8N149 24-449 limits assumed): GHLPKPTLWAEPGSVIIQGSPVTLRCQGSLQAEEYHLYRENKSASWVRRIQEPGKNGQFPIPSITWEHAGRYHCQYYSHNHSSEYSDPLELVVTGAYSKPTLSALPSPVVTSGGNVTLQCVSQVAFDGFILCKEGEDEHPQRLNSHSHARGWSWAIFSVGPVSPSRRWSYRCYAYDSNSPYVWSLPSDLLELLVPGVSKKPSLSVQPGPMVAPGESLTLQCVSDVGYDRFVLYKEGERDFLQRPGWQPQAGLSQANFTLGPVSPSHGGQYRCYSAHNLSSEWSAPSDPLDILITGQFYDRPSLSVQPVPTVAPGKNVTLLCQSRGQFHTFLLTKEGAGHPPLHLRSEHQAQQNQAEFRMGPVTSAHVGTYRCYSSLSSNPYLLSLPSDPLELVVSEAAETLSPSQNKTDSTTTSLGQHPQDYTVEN
T5 sequence (O75023 24-458 limits assumed): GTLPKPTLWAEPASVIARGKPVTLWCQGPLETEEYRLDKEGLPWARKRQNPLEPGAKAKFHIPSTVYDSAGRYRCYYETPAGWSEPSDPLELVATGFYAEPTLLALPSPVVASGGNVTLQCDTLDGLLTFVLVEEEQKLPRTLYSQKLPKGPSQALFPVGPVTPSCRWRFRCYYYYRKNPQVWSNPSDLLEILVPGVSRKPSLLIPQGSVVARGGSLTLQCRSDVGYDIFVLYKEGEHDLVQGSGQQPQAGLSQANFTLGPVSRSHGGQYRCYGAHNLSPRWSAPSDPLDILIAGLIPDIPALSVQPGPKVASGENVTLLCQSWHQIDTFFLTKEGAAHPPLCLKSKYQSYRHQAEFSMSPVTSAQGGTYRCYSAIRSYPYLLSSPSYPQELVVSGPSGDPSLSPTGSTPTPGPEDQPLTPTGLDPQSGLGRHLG
T3 sequence (Q8N6C8 24-439 limits assumed): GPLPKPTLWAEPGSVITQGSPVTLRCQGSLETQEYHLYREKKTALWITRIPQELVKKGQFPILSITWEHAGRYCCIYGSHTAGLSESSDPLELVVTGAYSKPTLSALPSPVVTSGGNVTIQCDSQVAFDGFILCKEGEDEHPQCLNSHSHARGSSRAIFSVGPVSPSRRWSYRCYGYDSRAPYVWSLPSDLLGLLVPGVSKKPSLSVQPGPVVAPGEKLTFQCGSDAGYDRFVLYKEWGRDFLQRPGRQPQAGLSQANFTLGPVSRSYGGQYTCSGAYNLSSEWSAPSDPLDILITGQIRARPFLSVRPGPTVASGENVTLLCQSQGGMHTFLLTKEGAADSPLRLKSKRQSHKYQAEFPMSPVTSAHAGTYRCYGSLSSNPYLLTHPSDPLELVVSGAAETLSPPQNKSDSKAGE

- binding result (human LILRA1 [1]): binds
B1: LK-RB1-48 (antibody, human IgG4 S228P, kappa, V domains shown)
VH: EVKLVESGGGLVQPGGSLKLSCAASGFTFSDYYMYWVRQTPEKRLEWVAYISNGGGISFYPDTVKGRFTISRDNAKNTLYLQMSRLKSEDTAIYYCASATKEVGAMDYWGQGTSVTVSS
VL: DIVMTQSQKFLSTTVGDRVSITCKASQNVGTAVAWYQQKPGQSPKILIYSASNRYTGVPDRFTGSGSGTDFTLTISNMQSEDLADYFCQQYSSYRTFGGGTKLEIKR
notes: anti-LILRB1 clone from mouse hybridoma

- binding result (human LILRA1 [1]): binds
B2: LK-RB1-55 (antibody, human IgG4 S228P, kappa, V domains shown)
VH: EVKLVESGGGLVQPGGSLKLSCAASGFTFSDYYMYWVRQTPEKRLEWVAYISNGGDITFYPDTVKGRFTISRDNARSTLYLQMSRLKSEDTAIYYCASATTEVGAMDHWGQGTSVTVSS
VL: DIVMTQSQKFMSTTVGDRVSITCKASQNVGTAVAWYQQKPGKSPKLLIYAASNRYTGVPDRFTGSGSGTDFTLTISNMQSEDLADYFCQQYSSYRTFGGGTNLEIKR
notes: as for B1

- EC50 [2]: 0.4 nM
B3: LK-RB2-47 (antibody, human IgG4 S228P, kappa, V domains shown)
VH: QVQLKQSGPGLVQPSQSLSITCTVSGFSLISYGVHWVRQSPGKGLEWLGVIWSGGSTDYNAAFISRLSISKDNSKSQVFFKMNSLQADDTAIYYCARSFHYHGSTFDYWGQGTTLTVSS
VL: DIQMTQTTSSLSASLGDRVIISCRASQDINNYLNWYQQKPDGTVKLLIYFTSRLHSGVPSSFSGSGSGTDYSLTINNLEQEDIATYFCQQVNTLPYTFGGGTKLEIKR
notes: Anti-LILRB2 antibody

- binding result (human LILRA3): binds
B4: LK-RB1-3 (antibody, human IgG4 S228P, kappa, V domains shown)
VH: QVQLQQPGAELVKPGTSVNLSCKASGYTFTSYWIHWVKQRPGRGLEWIGRINPYSSGTRYNEKFKNKATLTVDKPSSTAYMQLTSLTSEDSAVYYCARFDGAPDYFDFWGQGTTLTVSS
VL: DIVMTQSQKFMPTSVGDRVNVTCKASQNVGINVAWYQQKLGQSPKALIYSASYRYSGVPDRFTGSGSGTDFTLTINSVQSEDLADYFCQQYNNYPFTFGSGTKLEIKR
notes: anti-LILRB1 antibody

- binding result (human LILRA2): binds
- binding result (human LILRA1 [1]): binds
B5: LK-RB1-59 (antibody, human IgG4 S228P, kappa, V domains shown)
VH: QIQLVQSGPELKKPGETVKISCKASGYTFTTYGMSWVKQAPGKGLKWMGWINTYSGVPTYADDFKGRFAFSLETSASTAYLQINNLKNEDTATYFCARRRIYYGNKGYAMDYWGQGTSVTVSS
VL: DIQMTQSPASLSVSVGETVTITCRASENIYSNLVWYQQKQGKSPQLLVYTATNLADGVPSRFSGSGSGTQFSLKINSLQSEDFGSYYCQHFWGTPWTFGGGTKLEIKR
notes: as for B1

- binding result (human LILRA3): binds
B6: LK-RB1-4 (antibody, human IgG4 S228P, kappa, V domains shown)
VH: QVQLQQPGAELVKPGASVKLPCKTSGYTFTSYWMHWVKQRPGRGLEWIGRIDPHYSGTKYNEKFKNKATMTVDTPSSTAYMQLSSLTSEDSAVYYCARFDGDPYYFDYWGPGTTLTVSS
VL: DIVMTQSQKFMSTSVGDRVSVTCKASQNVGTNVAWYKQKAGQSPKAVIYSASYRYSGVPDRFTGSGSGTDFTLSISNVQSEDLAEYFCQQYNNNPFTFGSGTKLEIKR
notes: anti-LILRB1 antibody

- EC50 [2]: 19.8 nM
B7: LK-RB2-8 (antibody, human IgG4 S228P, kappa, V domains shown)
VH: QIQLVQSGPELKKPGETVKISCKASGYSFASYGMGWVKQAPGKGLKWLGWINTHSGVPTYADDFKGRFAFSLETSASTAYLQINNLKNEDTATYFCAHYGRPWFPYWGQGTLVTVSA
VL: DIQMTQSPASLSASVGETVTITCRTSENIYSYLAWYQQKQGKSPQLLVYNAKSLAEGVPSRFSGSGSGTQFSLRINSLQPEDFGTYYCQQHYETPLTFGAGTKLELKR
notes: Anti-LILRB2 antibody

- EC50 [2]: 5.45 nM
B8: LK-RB2-16 (antibody, human IgG4 S228P, kappa, V domains shown)
VH: QIQLVQSGPELKKPGETVKISCKASGYTFTTYGMGWVKQAPEKGLKWMGWINTNSGAPTYGDDFKGRFAFSLETSASTAYLQINNLKNEDTATYFCAHYGRPWFAYWGQGTLVTVSA
VL: DIQMTQSPASLSASVGETVTITCRASENIYSYLAWYHQKQGESPQLLVYNAKTLAEGVPSRFSGSGSGTQFSLKINSLQPEDFGSYYCQHHYNIPLTFGAGTKLELKR
notes: Anti-LILRB2 antibody

- binding result (human LILRB5): binds
- binding result (human LILRB3): binds
B9: LK-RB1-35 (antibody, human IgG4 S228P, kappa, V domains shown)
VH: DVQLQESGPGLEKPSQSLSLTCSVTGYSITRGYQWNWIRQFPGNKLEWMGYISYDGSNNYNPSLKNRISITRDASKNQFFLKLNSVTTEDTATYYCARRSYNSIDYWGQGTTLTVSS
VL: DIVLTQSPATLSVTPGDSVSLSCRASQSISSNLHWYQQKSHESPRLLIKYASQSISGIPSRFSGSGSGTDFTLSINSVETEDFGMYFCQQSNSWPLTFGAGTKLELKR
notes: as for B1

- binding result (human LILRB5): binds
- binding result (human LILRB3): binds
B10: LK-RB1-36 (antibody, human IgG4 S228P, kappa, V domains shown)
VH: DVQLQESGPGLEKPSQSLSLTCSVTGYSITRGYQWNWIRQFPGNKLEWMGYISYDGSNNYNPSLKNRISIIRDTSKNQFFLKLNSVTTEDTATYYCARRSYNSIDYWGQGTTLTVSS
VL: DIVLTQSPATLSVTPGDSVSLSCRASQSISNNLHWYQQKSHESPRLLIKYASQSISGIPSRFSGSGSGTDFTLSINSVETEDFGMYFCQQSNSWPLTFGAGTKLELKR
notes: as for B1

- binding result (human LILRA1 [3]): binds
B11: LK-RB2-24 (antibody, human IgG4 S228P, kappa, V domains shown)
VH: QIQLVQSGPEVKKPGETVKISCKASGYTFTTYGMSWVKQAPGKGLKWMGWLNIYSGVPAYADDFKGRFAFSLESSASTAYLQINNLKNEDTATYFCARRENYDGYGMDYWGQGTSVTVSS
VL: DIVMTQSPATLSVTPGDRVSLSCRASQSISDYLHWYQQKSHESPRLLIKYASQSISGIPSRFSGSGSGSDFTLSINSVEPEDVGVYYCQNGHSFPYTFGGGTKLEIKR

- EC50 [2]: 2.15 nM
- EC50 [4]: 760 nM
B12: 15G8 (antibody, human IgG4 S228P, kappa, V domains shown)
VH: DVQLQGSGPGLVKPSETLSLTCSVTGYSITSGYYWNWIRQFPGKKLEWMGYISYDGSNNYNPSLKNRITISRDTSKNQFSLKLNSVTAADTATYYCAHGYSYYYAMDAWGQGTSVTVSS
VL: DIQMTQSPSSLSASVGDRVTITCRTSQDISNYLNWYQQKPGKAVKLLISYTSRLHSGVPSRFSGSGSGTDYTLTISSLQPEDFATYYCQQGNTLPTFGQGTKLEIKR

- binding result (human LILRA1 [3]): binds
- binding result (human LILRB4): binds
B13: LK-RB2-12 (antibody, human IgG4 S228P, kappa, V domains shown)
VH: QIQLVQSGPELKKPGETVKISCKASGYTFTTYGMSWVKQTPGKGLKWMGWINIYSGVPTYADDFKGRFVFSLEISASTAHLQINNLKNEDTATYFCARRKDYSGHCFDYWGQGTTLTVSS
VL: DIVLTQSPASLAVSPGQRATISCRASESVDTYGISFMHWYQQKPGQPPKLLIYRASNLESGIPARFSGSGSRTDFTLTINPVETDDVAIYYCQQSKKDPYTFGGGTKLEIKR

- binding result (human LILRA1 [3]): binds
- binding result (human LILRB4): binds
B14: LK-RB2-15 (antibody, human IgG4 S228P, kappa, V domains shown)
VH: QIQLVQSGPELKKPGETVKISCKASGYTFTTYGMSWVKQAPGKGLKWMGWINVYSGVPTYADDFKGRFAFSLEISASTAYLQINNLKDEDTATYFCARRKDYSGHCFDYWGQGTTLTVSS
VL: DIVLTQSPASLAVSLGQRATFSCRASESVDTYGISFMHWYQQKPGQPPKLLIYRASNLESGIPARFSGSGSRTDFTLTINPVETDDVATYYCQQSKKEPYTFGGGTKLEIKR

- binding result (human LILRA2): binds
B15: LK-RB1-33 (antibody, human IgG4 S228P, kappa, V domains shown)
VH: QIQLVQSGPELKKPGDTVKISCKASGYTFTSYGMNWVKQAPGEGLKWMGWINTYSGVPTYGDDFKGRFAFSLETSASTAYLQINNLENEDTATYFCARRGRDSVVGHFDVWGTGTTVTVSS
VL: DIVMTQSHKFMSTSVGDRVSITCKASQDVNTAVAWYQQKPGQSPKLLIYWASTRHTGVPDRFTGSGSGTDFTLTISSVQAEDLALYYCQQHYTIPFTFGSGTRLEIKR
notes: as for B1

- binding result (human LILRA2): binds
- binding result (human LILRA1 [1]): binds
B16: LK-RB1-47 (antibody, human IgG4 S228P, kappa, V domains shown)
VH: QIQLVQSGPELKKPGETVKISCKASGYTFTTYGMSWVKQAPGKGLKWMGWINTYSGVPTYTDDFKGRFAFSVETSASTAYLQINNLKNEDTATYFCARRERDFYGNIFFPYWGQGSLVTVSA
VL: DIQMTQTTSSLSASLGDRVTISCRASQDISNYLNWYQQKPDGTVKLLIYYTSRIHSGVPSRFSGSGSGTDFSLTISNLDQEDIATYFCQQGHTLPWTFGGGTKVEIKR
notes: as for B1

- EC50 [2]: 1.16 nM
- EC50 [4]: 1.51 nM
B17: LK-RB1-5 (antibody, human IgG4 S228P, kappa, V domains shown)
VH: QVQLQQPGAELVKPGASVKLSCKASGYTFTDFWIHWVKQRPGQGLEWIGMIHPNSGSTNFNEKFRAKATLTVDKSSSTAYMRLSSLTSEDSAVYYCARSGDGYSNPMDYWGQGTSVTVSS
VL: QIVLSQSPAILSASPGEKVTLTCRASSSVSYMHWYQQKPGSSPKPWIYATSNLASGVPVRFSGSGSGTSYSLTISRMQTEDAATYYCQQWRRSPYTFGGGTKLEIKR
notes: Anti-LILRB1 antibody

- EC50 [2]: 0.36 nM
B18: LK-RB1-39 (antibody, human IgG4 S228P, kappa, V domains shown)
VH: EVQLQQSGAELVRPGASVKLSCTASGFNIKDDYVHWVNQRPEQGLEWIGWIDPENGDTGYASKFQDKATITADTSSNTAYLHLSSLTSEDTAVYYCTTTRWTGSYWGQGTTLTVSS
VL: QIVLTQSPAIMSASPGEKVTITCSASSSVNYMHWFQQKPGSSPKLWIYSTANLASGVPARFSGSGSGTSYSLTISRMEAEDAATYYCQQRSSYPPTWTFGGGTKLEIKR
notes: Anti-LILRB1 antibody
